B1: ahpC (dsDNA)
DNA 1: TTTGCCTGACAGCGACTTCACGGCACGATG
DNA 2: CATCGTGCCGTGAAGTCGCTGTCAGGCAAA
B2: DR (dsDNA)
DNA 1: ACGATTCACAGCTGATTCACAGCATCTACG
DNA 2: CGTAGATGCTGTGAATCAGCTGTGAATCGT
B3: lpqA (dsDNA)
DNA 1: GCACCTTCACCGCCCGCCCACAGCCACGCA
DNA 2: TGCGTGGCTGTGGGCGGGCGGTGAAGGTGC
B4: tetra (four motifs) (dsDNA)
DNA 1: GTACCTCACAGCACTTTCACAGCTTTCTCACAGCTGATTCACAGCATCTATG
DNA 2: CATAGATGCTGTGAATCAGCTGTGAGAAAGCTGTGAAAGTGCTGTGAGGTAC
B5: hisG (dsDNA)
DNA 1: CGCGACCCGCAGCATGCTCACAGCTTTCGA
DNA 2: TCGAAAGCTGTGAGCATGCTGCGGGTCGCG
B6: DRs3 (3-bp spacer) (dsDNA)
DNA 1: AAGTACCTCACAGCACTTCACAGCTTTCAT
DNA 2: ATGAAAGCTGTGAAGTGCTGTGAGGTACTT
B7: tri (three motifs) (dsDNA)
DNA 1: GTACCTCACAGCACTTTCACAGCTTTCTCACAGCATCTATG
DNA 2: CATAGATGCTGTGAGAAAGCTGTGAAAGTGCTGTGAGGTAC
B8: crystal direct-repeat DNA (dsDNA)
DNA 1: GATTCACAGCTGATTCACAGCATCTA
DNA 2: CTAGATGCTGTGAATCAGCTGTGAAT
B9: RD6-half (dsDNA)
DNA 1: CAGAAGTCACAGCACTTGGG
DNA 2: CCCAAGTGCTGTGACTTCTG
B10: RD6 (dsDNA)
DNA 1: AAGTACCTCACAGCACTTTCACAGCTTTCAT
DNA 2: ATGAAAGCTGTGAAAGTGCTGTGAGGTACTT

target: T1, PhoP wild type (Mycobacterium tuberculosis, UniProt P71814 1-247); assay: ITC; 5 mM MgCl2; ITC: 20 mM HEPES pH 7.5, 100 mM NaCl, 5 mM MgCl2, 25 C, […]; conditions: protein: recombinant; tags: N-terminal His-tag removed with TEV; chain copies: 2

Question: B1 was tested. Which Kd did it give?
Answer: Its Kd is 104 ± 7.2 nM.

Question: B2 was tested. Which Kd did it give?
Answer: The Kd was 19.2 ± 2.8 nM.

Question: B3 was tested. Which Kd did it give?
Answer: Its Kd is 347 ± 35.1 nM.

Question: For B4, which Kd is on record?
Answer: Its Kd is 2.2 ± 0.7 nM.

Question: Which Kd does the source give for B5 here?
Answer: Its Kd is 35.6 ± 4.3 nM.

Question: B6 was tested. Which Kd did it give?
Answer: Its Kd is 433 ± 17.5 nM.

Question: For B7, which Kd is on record?
Answer: The Kd was 4.6 ± 2.7 nM.

target: T1, PhoP wild type; assay: X-ray crystal structure (2.4 A); Ca2+ at Asp71; 2:1 PhoP:DNA; ITC: 20 mM HEPES pH 7.5, 100 mM NaCl, 5 mM MgCl2, 25 C, […]; conditions: protein: recombinant; tags: N-terminal His-tag removed with TEV; chain copies: 2; G/C overhangs

Question: Does B8 bind?
Answer: Result: binds

target: PhoPC (isolated effector/DNA-binding domain) (Mycobacterium tuberculosis, UniProt P71814 148-247); assay: ITC; 5 mM MgCl2; ITC: 20 mM HEPES pH 7.5, 100 mM NaCl, 5 mM MgCl2, 25 C, DNA titrated into protein; conditions: protein: recombinant; tags: His-tag removed (similar procedure); chain copies: 2

Question: For B9, which Kd is on record?
Answer: Its Kd is 12200 ± 1600 nM.

Question: For B10, which Kd is on record?
Answer: Its Kd is 188 ± 9 nM.

— article PMC4832192, “Structural basis of DNA sequence recognition by the response regulator PhoP in Mycobacterium tuberculosis”
